This note sets out measurements from the DeepSol protein solubility set.

This series is described as follows: soluble on expression in E. coli; label from the status in PepcDB or PDB records.
For the sequence “MSLALVYSRALSGMNAPLVEVEAHLANGLPHFNIVGLPDMEVKESRDRVRAAIIQSGFEFPAKKITVNLAPADLPKESGRFDLPIAIGILAASGQVAPEKLEEYEFAGELALSGLLRPVRGALAMAWQGMQAKRAFVLPEENAGQAAVMRGITVYGARSLGEVAAHLNGIEPLAQTECQVPQMPFEHGGQPDLCDVKGQHTARLALEIAAAGGHSLLMMGPPGTGKSMLSQRLPGILPPLTEDELVEVWALRSLLPNHQQQLDSNRPFRSPHHSASAAAMVGGGSDPRPGEISLAHHGVLFLDELPEFDRKVLEVLREPLENGEIHISRAARQAVYPAKFQLVAAMNPCPCGYLGHPVKPCRCTPESVARYRSKISGPLLDRIDLTIEVPSLSAAELMQQEAGESSASVLERVIAARDKQYARQGKVNAALSVSELDTSARIQKEAQEALGGLLEKLSLSARSFHRIMRVARTLADLAGDEEVGRSHVMKAIGFRRAL”, the “soluble on expression in E. coli” value is given as “not soluble”.

As to “MTEIQKPYDLKGRSLLKESDFTKAEFEGLIDFAITLKEYKKNGIKHHYLSGKNIALLFEKNSTRTRAAFTVASIDLGAHPEFLGKNDIQLGKKESVEDTAKVLGRMFDGIEFRGFSQQAVEDLAKFSGVPVWNGLTDDWHPTQMLADFMTIKENFGYLEGINLTYVGDGRNNIAHSLMVAGAMLGVNVRICTPKSLNPKEAYVDIAKEKASQYGGSVMITDNIAEAVENTDAIYTDVWVSMGEESEFEQRINLLKDYQVNQQMFDLTGKDSTIFLHCLPAFHDTNTLYGQEIYEKYGLAEMEVTDQIFRSEHSKVFDQAENRMHTIKAVMAATLGS”, the “soluble on expression in E. coli” value is “not soluble”.

For “MGSDKIHHHHHHMAARLREFRRAIGDPDREEFARSIGVSKTTLASYERGESEPTASVLFAYREKHGADVLWLVGGEGEMRGSQLSSAAVAERDFVLMPQYDVCASAGTGRLPVNQMPTSETAFERKFLRDLGGAPDHCFLMWSTGDSMLPSIPDNALLIVDASQTTVDHGRIYVFSVGNAVLVKRANWRMDGRLDLISDNTAGKYPVETFDANRVEDLAVVGRVIFVGHPP”, the “soluble on expression in E. coli” value was “not soluble”.

For the sequence “GSMENTDVFLGLHDFLERMRKPSAGDFVKSIKSFIVSFSNNAPDPEKDCAMVQEFFSKMEAAFRAHPLWSGCSEEELDSAGDGLEKYVMTKLFTRVFASNTEEVIADEKLFQKMSLVQQFISPENLDIQPTFQNESSWLLAQKELQKINMYKAPRDKLVCILNCCKVINNLLLNASIASNENAPGADEFLPVLIYVTIKANPPQLHSNLLYIQRYRRESKLVGEAAYFFTNILSAESFISNIDAKSISLDEAEFEKNMESARARISG”, the “soluble on expression in E. coli” value was “soluble”.

In the case of “PKLSQDEIDDLKDVFELFAFWDGRDGAVDAFKLGDVCRCLGINPRNEDVFAVGGTHKMGEKSLPFEEFLPAYEGLMDCEQGTFADYMEAFKTFDREGQGFISGAELRHVLTALGERLSDEDVDEIIKLTDLQEDLEGNVKYEDFVKKVMAGPYPDK”, the “soluble on expression in E. coli” value is recorded as “soluble”.

Regarding “MGSDKIHHHHHHMTLPEPDFIARDPAVITAELIAQYEQMSGKTLYPAQVERLLIDLMAYRETLVRVGIQEAAKQNLVAYARAPMLDYLGQLVGVTRLPAQPARATLRFTLDAPLASPLPIPAGTRVESGDGVVAFATDEAATLPAGRTSLEIAATCQDAGSAGNGWQPGQIVNLMDDLGDMDVVVTNTAVTAGGVDEEDDERLRERIMLAPESFSNAGSRQAYRFHALRAHQSIVDVAVLSPTPGVVQLYPLLKTGLPDANMLALVQATCSAERVRPLTDYVEALAPTAIDYAIDVRLTVYPDVDGKAVKTQAQERLQAYAAERAGALGRDIVPSQIIAAVQVPGVYQATVASPGLQQVPEHGWARCTGVSVTLEGVSHG”, the “soluble on expression in E. coli” value is reported as “not soluble”.

As to “MKVLTVFGTRPEAIKMAPLVHALEKDPHFEAKVCVTAQHREMLDQVLTLFSIVPDYDLNIMQPGQGLTEITCRILEGLKPILADFKPDVVLVHGDTTTTIATSLAAFYQRIPVGHVEAGLRTGDLYSPWPEEANRTLTGHLAMYHFAPTENSRQNLLRENIPDERIFVTGNTVIDALIWVRDRVLTSDTLQAELAEQYPFLNANKKMILVTGHRRESFGQGFEHICQALAEIAAANQNVQIVYPVHLNPNVSEPVNRILGHVENVVLIEPQDYLPFVWLMNHAWLILTDSGGIQEEAPSLGKPVLVMRETTERPEAITAGTVRLIGTDSRRIVAEVMRLLHDENEYQTMSRAHNPYGDGQSCARILQALKSYRVSL”, the “soluble on expression in E. coli” value is recorded as “not soluble”.

As for “MGSDKIHHHHHHMSHNIKYRQLKAFRILAESGSFKHAADSLAVTQPSMSIMIRELESDLGVALIDRATRSAELTDAGRDFYQQIKGSLDQLEKAYSYANAAGKAEHGRVRIATLTSLAAEAVTTAIARMHAERPGIQIELMERTYFLALRRREVDLGVGILHEAHADLDFQYLFSDQLVVVTPKGHPLARQRQPLKHLGKYDVVVVSPGPSLEALQELDADCAPPVQVEQPSTAITMVRKGLGVTVTSSSATTGLDMRGLAAVPIPGTTRDVGVITLAQARLSPVASAFLRCLRHVHPAG”, the “soluble on expression in E. coli” value is “not soluble”.

Take “STGVPATDLQQSIMKNVQPIELYFDNELVTDCSALGVYDNSYLVPLHLFEFDFDTIVLGGRHYKKAECEKVEFELEVNGDMVSSDACLLRVPSGPKVRNIVHLFTNEIELKKMTQVTGIMNSPHQARTVFFGSFLTVRKSILTSDGTVMPNVLSYAAQTSRGYCGAAIVAGSPARIIGIHSAGTGSVAFCSLVSKDALERTLPQKQGNVSRLDDDVRVSVPRRSKLVKSLAYPIFKPDYGPAPLSQFDKRLSDGVKLDEVVFAKHTGDKEISAQDQKWLLRAAHVYAQKVFSRIGFDNQALTEKEAICGIPGLDKMEQDTAPGLPYAQQNKRRKDICDFEEGRLKGAAKFQKDRFMAGDYSDLIYQSFLKDEIRPLEKVRAGKTRLIDVPPMPHVVVGRQLLGRFVAKFHEANGFDIGSAIGCDPDVDWTRFGLELERFRYVYACDYSRFDANHAADAMRVVLNYFFSEDHGFDPGVPAFIESLIDSVHAYEEKRYNIYGGLPSGCSCTSILNTILNNVYILAAMMKAYENFEPDDIQVICYGDDCLIASDFEIDFQQLVPVFSSFGQVITTADKTDFFKLTTLSEVTFLKRAFVPDGAFYKPVMDVKTLEAILSFVRPGTQAEKLLSVAQLAGHCEPEQYERLFEPFVGMYFVPTWRDLRLQWLMKLGC”: the “soluble on expression in E. coli” value is “soluble”.

With “MDSKILTMFNQGKHEEAIQAAVKAIDAAPDDPKRYAMLATMLISIKALDQAGELLAKARQLFPEDLELQYTAGLFAYAQADFAAAVSWFAKVRTDQTLKNDATYMLALSYQQAGQPTKALAFALTAHDLAPKQLDTALLAADLLMANDVFDAAARVLKPLLATEQPQVLFTYGMALSAAGKDGSHYLNKAKALDPKGYDQKANIVADINRFLRLQEGQDGHALEHHHHHH”, the “soluble on expression in E. coli” value was “soluble”.

Regarding “MMSETGFIDVKIFPQRLLKPETAEKLLNRIYELEGIVRVLVHGPSIPDRVYYGPARGTEVNHSDRRKITVRGEEFELRVKVGEIIVGMLPETLEEKMETIEEILDEVLPCSYKVFIGAFTKKDITISDYLKYGLKFEEKIDPRVIGMVDPSSRMKDTVVNIKLEHHHHHH”, the “soluble on expression in E. coli” value is “soluble”.

Take “MLGIYVLSVDRQSPFAQALKVGDTVTEVNGHHFNSMTGYQRYIQRQKVGQRATITYQRNGKTHHVTAKLMRLPTKKAGIGITLEHHHHHH”: the “soluble on expression in E. coli” value is on record as “not soluble”.

Take “MNDKQYQEIASLLERLSRNNAMSIYGDWIKNSFSKELIASISVLTHNDLKILDSLFKQDLSISDVVSRTGLSQGGVSRRVNMMSEKGIIHKYQNDKNKKTVFLKLNPIGQELFDFHRKLHDHIKEIFFQKTQRFNEEQIRVVISFLEAILT”: the “soluble on expression in E. coli” value was “soluble”.

As to “MGGGHHEPFKIPNYSIYSNFRDFPQLAQHEKRLAQIGLKDPWIRNYVYLYDRKYPHVVGQWAHFKKLILPGWKAGVAFTAALIFVEEAYQYKTHGTTSWDGHH”, the “soluble on expression in E. coli” value was “not soluble”.

On to “MEPAAGSSMEPSADWLATAAARGRVEEVRALLEAGALPNAPNSYGRRPIQVMMMGSARVAELLLLHGAEPNCADPATLTRPVHDAAREGFLDTLVVLHRAGARLDVRDAWGRLPVDLAEELGHRDVARYLRAAAGGTRGSNHARIDAAEGPSDIPD”, for which the “soluble on expression in E. coli” value is “soluble”.

With “MGSDKIHHHHHHVTLDQLLMFRTVAEAGSLKAASNKLHKTQPAISQSIKQLESQLDLILFNREGYRLAITEQGRKLLQHTLRVLNEAQEMKQVAKHLAKGNEASITLAFEASFNLARILPILELTQNEFPYTQIILKQEFLTGALEALNQDKAEIIISAGGIEPIRSSHLELAYLFSGSLLDVAAPRLLSRYPNLSHVRELVNEYQIVIQDTGTGTANIEFGVQAGQRRWYVNDFYTKKMLIQSGMGWGKLPHYMIEDSLKQGALIALDLRERQNNIQLDYYVMRKPHSPLGPVAQALWQKLIAFSLS”, the “soluble on expression in E. coli” value is “not soluble”.

For the sequence “MTVLSPSLPHAAGIDAALVENPWLGLRRSGRYFQNAETEALFARALGYARAGVCVHLAGPAGLGKTTLALRIAQALGRPVAFMTGNEWLGSRDFIGGEIGQTVTSVVDRYIQSVRRTEQSARIDWKESILGQAMRCGQTFIYDEFTRASPEANAALLSVLEEGVLVSTDGASRHQYIEAHPDFRVLLTSNPHEYQGVKAAPDALIDRMVTLRLEEPSAPTLAGIVALRSGLDPATARRIVDLILSVQRSGEMQAPPSMRTAILVARLAAPLRLAGRLSDAALAEIAADVLRGRGLEADAAAFEAKLAAPTPGETARLEHHHHHH”, the “soluble on expression in E. coli” value is on record as “not soluble”.

On to “MGSDKIHHHHHHMMQKPKVGQDVPEPSAGGMFQRDAMSPSVAHKPVLELKGNLLSLMVLYLFDSDRNLIEQQFTEKISGAKNFFKNAPIVIDLHALQNTSVPVDLSHLSDLFRKHGLVPVGVRGGNVQQQQAALNLSLGILPDAKPASSRGEPQTEVAVQATRDKVFTQPVRSGQQVAALQGDLVVLAAVNPGAEILAGKNIHVYGPLRGRAIAGVHGYSEARIFCRYFDAELVAVAGQYMLNEDFEDSVRGKPVHIFLENDRLKIQPFEI”, for which the “soluble on expression in E. coli” value is “not soluble”.

For the sequence “MYYIASADSQQSQQGRSQAEAPEFLTEKCPFVGLKSTLEQVGTPR”, the “soluble on expression in E. coli” value is listed as “not soluble”.

For “MPAPLKQLSWSVGCREIGRNCAISFIDALVNSLLAFRIAKRHTKLASECTWSQGRIDFMSENLNHTERQDRAITAPEFDALGRAPFISSLVKTLVHTDYDTSTGEVRSRRATGFVVGLTGEWGLGKSSVLNLLEHDLKQMEHVAVATLNPWLFKGRDEVVEAYFNALREALGFSSSEKARKLLVHLARYKASIEFVGATTAVVIDFVVGTGSATAIWKKWVLKVVRFLSKSRGLSANEERKNLEAKLAEAKIAIVMLIDELDRVEDEEVRVVAQLVKAVGDIKGISYLVAYDPSRVAQALGKGSTPEEKQKAGESYLEKIIQFPIPLRPLFMDEARDLLLQAMRNNDVTMPAESQSYQTEILNQLLRVIRTPREIKRLIGAFAVLEEIVRGEICPFDVLAYSWLVTKAPSLRERIADNIGQLVDDPSGEEMLARQRQRALATDKERTLTDILGSSAVSHLDILQLLFTRFNARREGSAEFFNGYRLALRRNLIRLLYLGNPPGDFSRRDIEVLWSLTNVDELEAELRRVKETDRLGPLLDRVGDFSASFPEAGDGIFWLALGRALVRENDWIRREEVERSLVDDACATLWRIARDGSEGSRRLRHIVHVLIEGGDLLIVPWLLRKHLFAHGLTNHGDRGRGDCIFEKDETIALRDKELPRYHDAVADGTALKKLPDTELIFCVLNSNYWDSKLKEDFTLQLDSIEAIVSFAALIMPPGIICDKSTLDLMLETDTVLKKANALLRQSGMPESDWLASAVRRLRTVLAGRDIHSADTLRDDFDQEELEHHHHHH”, the “soluble on expression in E. coli” value is reported as “not soluble”.

Consider “AERGELDLTGAKQNTGVWLVKVPKYLSQQWAKASGRGEVGKLRIAKTQGRTEVSFTLNEDLANIHDIGGKPASVSAPREHPFVLQSVGGQTLTVFTESSSDKLSLEGIVVQRAECRPA”, for which the “soluble on expression in E. coli” value is on record as “soluble”.
